Measured values published in patent publication US20230340111A1 (published 2023).
Changes are numbered by the printed parent chain. Names may count otherwise.

B1: untagged N64E variant of VHH A1 (VHH)
VHH: DVQLVESGGGLVQPGGSLRLSCAASESIFSRNHMSWYRQAPGKQRELAAIITSDGETNYPDSVKGRFTISRDNAKNTVYLQMNSLKPEDTAVYYCNTFGRSVAGFYDYWGQGTQVTVSS
notes: also called A1-N64E
B2: untagged D59E variant of VHH A1 (VHH)
VHH: B1 VHH with D54E, E56N
notes: also called A1-D59E
B3: untagged N64Q variant of VHH A1 (VHH)
VHH: B1 VHH with E56Q
notes: also called A1-N64Q
B4: untagged N64S variant of VHH A1 (VHH)
VHH: B1 VHH with E56S
notes: also called A1-N64S
B5: untagged E90Q variant of VHH A2 (VHH)
VHH: DVQLVESGGGLVQAGGSLRLSCAADEMKFSNYDLAWYRRAPGKQRELAAIITSGGSTNYPDSVKGRFTISRDNAKNTVYLQMNSLKPEDTAVYYCNALRPWPQFSDYWGQGTQVTVSS
notes: also called A2-E90Q
B6: untagged K29Q-E90Q variant of VHH A2 (VHH)
VHH: B5 VHH with K28Q
notes: also called A2-K29Q-E90Q
B7: untagged K29R-E90Q variant of VHH A2 (VHH)
VHH: B5 VHH with K28R
notes: also called A2-K29R-E90Q
B8: untagged M28T-E90Q variant of VHH A2 (VHH)
VHH: B5 VHH with M27T
notes: also called A2-M28T-E90Q; A2-M28TE90Q
B9: untagged M28A-E90Q variant of VHH A2 (VHH)
VHH: B5 VHH with M27A
notes: also called A2-M28A-E90Q
B10: 131I-labeled untagged A1-D59E (VHH)
VHH: B1 VHH with D54E, E56N
modifications: [131I]SGMIB conjugated to lysine side-chain amine groups
B11: 131I-labeled untagged A1-N64S (VHH)
VHH: B1 VHH with E56S
modifications: [131I]SGMIB conjugated to lysine side-chain amine groups
B12: 131I-labeled untagged A1-N64Q (VHH)
VHH: B1 VHH with E56Q
modifications: [131I]SGMIB conjugated to lysine side-chain amine groups
B13: 131I-labeled untagged A1-N64E (VHH)
VHH: B1 VHH
modifications: [131I]SGMIB conjugated to lysine side-chain amine groups
B14: 131I-labeled untagged A2-E90Q (VHH)
VHH: B5 VHH
modifications: [131I]SGMIB conjugated to lysine side-chain amine groups
B15: 131I-labeled untagged A2-M28T-E90Q (VHH)
VHH: B5 VHH with M27T
modifications: [131I]SGMIB conjugated to lysine side-chain amine groups
B16: 131I-labeled untagged A2-K29R-E90Q (VHH)
VHH: B5 VHH with K28R
modifications: [131I]SGMIB conjugated to lysine side-chain amine groups
B17: 131I-labeled untagged A2-M28A-E90Q (VHH)
VHH: B5 VHH with M27A
modifications: [131I]SGMIB conjugated to lysine side-chain amine groups
B18: 131I-labeled untagged A2-K29Q-E90Q (VHH)
VHH: B5 VHH with K28Q
modifications: [131I]SGMIB conjugated to lysine side-chain amine groups

The binders below were run against T1, human FOLR1 recombinant protein (extracellular domain of human folate receptor alpha) (human, UniProt P15328 25-233) (assay: SPR (Biacore T200), single cycle kinetics, human FOLR1 immobilized on CM5, untagged VHH as analyte, 1:1 fit).
T1 construct: Bought recombinant protein (Sino Biological); also called hFOLR1; FR-alpha
T1 sequence (P15328 25-233): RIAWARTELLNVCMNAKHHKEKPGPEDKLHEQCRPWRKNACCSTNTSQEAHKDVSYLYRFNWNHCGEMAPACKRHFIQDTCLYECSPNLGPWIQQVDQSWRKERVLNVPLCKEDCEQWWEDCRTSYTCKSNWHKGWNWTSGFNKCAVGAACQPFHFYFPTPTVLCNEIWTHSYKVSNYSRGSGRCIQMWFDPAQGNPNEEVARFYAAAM
Procedure: The antigen-binding kinetic parameters of untagged, purified VHH A1 and A2 variants were determined by surface plasmon resonance on immobilized human FOLR1 recombinant protein with a Biacore T200 instrument (GE Healthcare). The human FOLR1 recombinant protein (Sino Biological) was immobilized in 10 mM sodium acetate, pH 5.5 on a CM5 chip (GE Healthcare) via amine coupling chemistry to 250 RU. VHHs were analyzed using single cycle kinetics with a threefold serial dilution in HBS (5 nM-0.062 nM) and an analyte flow rate of 40 µl/min. The association phase took 5× 450 s and the dissociation phase 900 s. Regeneration was done by a single injection of 50 mM glycine-HCl, pH 2.5, 2 M MgCl₂ for 30 s at 30 µl/min, followed by 120 s stabilization. Binding curves were fitted using a ‘1:1 (antigen:analyte)’ binding model in Biacore T200 evaluation software.
Work on B1 yielded a Kd of 0.092 nM, a koff of 0.00017 s⁻¹ and a kon of 1.8e+06 M⁻¹ s⁻¹.
For B2, the Kd was 0.083 nM, the koff was 0.00019 s⁻¹ and the kon was 2.3e+06 M⁻¹ s⁻¹.
For B3, the Kd was 0.036 nM, the koff was 8.2e-05 s⁻¹ and the kon was 2.3e+06 M⁻¹ s⁻¹.
B4 showed a Kd of 0.057 nM, a koff of 0.00014 s⁻¹ and a kon of 2.5e+06 M⁻¹ s⁻¹.
With B5 the Kd was 0.25 nM, the koff was 0.0006 s⁻¹ and the kon was 2.3e+06 M⁻¹ s⁻¹.
With B6 the Kd was 0.27 nM, the koff was 0.00048 s⁻¹ and the kon was 1.8e+06 M⁻¹ s⁻¹.
For B7, the Kd was 0.29 nM, the koff was 0.00053 s⁻¹ and the kon was 1.9e+06 M⁻¹ s⁻¹.
Binder B8 has a Kd of 0.56 nM, a koff of 0.0013 s⁻¹ and a kon of 2.3e+06 M⁻¹ s⁻¹.
Binder B9 has a Kd of 0.81 nM, a koff of 0.0016 s⁻¹ and a kon of 2e+06 M⁻¹ s⁻¹.

Each binder was assayed against T2, human FOLR1 expressed on SKOV-3 ovarian carcinoma cells (human, UniProt P15328 25-234) (assay: saturation binding of 131I-labelled untagged VHH on SKOV-3 cells).
T2 construct: Naturally expressed receptor on SKOV-3 cells; also called human FOLR1pos SKOV-3 cancer cells; human FOLR1-expressing cell line SKOV-3
T2 sequence (P15328 25-234 limits assumed): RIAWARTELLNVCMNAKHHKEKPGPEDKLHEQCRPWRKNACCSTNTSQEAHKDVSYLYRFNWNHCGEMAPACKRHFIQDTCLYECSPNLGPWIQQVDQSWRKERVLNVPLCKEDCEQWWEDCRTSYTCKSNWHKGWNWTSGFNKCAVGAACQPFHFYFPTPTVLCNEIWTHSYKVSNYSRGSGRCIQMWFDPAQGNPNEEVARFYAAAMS
Procedure: In a first part, their in vitro behaviour was assessed by means of investigating their cellular binding and retention over time. The binding potential of the resulting radioconjugates was assessed to confirm that this was not affected by the introduction of ¹³¹I-SGMIB into the amino acid sequence of the different VHHs. To this, human FOLR1^pos SKOV-3 cancer cells were incubated with serial dilutions with concentrations ranging from 0 to 300 nM of the different ¹³¹I-labelled, His₆ tagged VHHs. A 100-fold excess of the corresponding unlabeled VHH was added in parallel to saturate the human FOLR1 receptors expressed on cancer cells, to assess non-specific binding.
A1 and A2 parental untagged VHH’s and derivatives were radiolabeled with theranostic isotope ¹³¹I, as described in example 3, and subjected to saturation binding studies as described in example 6.
B10 gave an EC50 of 2.1 nM.
Work on B11 yielded an EC50 of 0.9 nM.
B12 was tested, and the EC50 was 2.3 nM.
B13 was tested, and the EC50 was 2.5 nM.
B14 showed an EC50 of 2.9 nM.
Binder B15 has an EC50 of 4.8 nM.
With B16 the EC50 was 3.6 nM.
With B17 the EC50 was 4.1 nM.
B18 was tested, and the EC50 was 5.1 nM.
